In article PMC3618186:

What was measured:
[1] = molecular target: Cytoplasmic dynein 1 intermediate chain 2, isoform 2C, N-terminal fragment IC1-124 (UniProt Q62871); experiment: sedimentation equilibrium analytical ultracentrifugation (Beckman-Coulter XLI, absorbance optics); conditions: 4 °C
[2] = molecular target: dynactin p150^Glued coiled-coil 1 (CC1) (R. norvegicus) (UniProt P28023); experiment: SEC; equimolar IC-TcTex1-LC8 complex and p150Glued fragment (CC1, CC1A, CC1B), alone or in combination, analytical Superdex 200 10/300 GL; fractions checked by SDS-PAGE
[3] = molecular target: dynactin p150^Glued coiled-coil 1B (CC1B), residues 381–530 (R. norvegicus) (UniProt P28023); experiment: as above
[4] = molecular target: dynactin p150^Glued coiled-coil 1 (CC1) (R. norvegicus) (UniProt P28023); experiment: AUC; sedimentation equilibrium of the p150Glued fragments alone, 4°C, 1x PBS, 1 mM TCEP; monomer-dimer model (dimer to monomers)
[5] = molecular target: p150Glued CC1 (Drosophila melanogaster) (UniProt P13496); experiment: ITC; conditions: cited from earlier work
[6] = molecular target: dynactin p150^Glued coiled-coil 1 (CC1) (R. norvegicus) (UniProt P28023); experiment: AUC; sedimentation equilibrium, CC1 + IC 1-124, 4°C, pH 7.0; model CC1 dimer + 2 IC, constant in M^2
[7] = molecular target: dynactin p150^Glued coiled-coil 1 (CC1) (R. norvegicus) (UniProt P28023); experiment: AUC; sedimentation equilibrium, CC1 + IC 1-124, 4°C, pH 8.0; model CC1 dimer + 2 IC, constant in M^2
[8] = molecular target: dynactin p150^Glued coiled-coil 1 (CC1) (R. norvegicus) (UniProt P28023); experiment: AUC; sedimentation equilibrium, CC1 + IC 1-124, 4°C, pH 9.0; model CC1 dimer + 2 IC, constant in M^2
[9] = molecular target: dynactin p150^Glued coiled-coil 1 (CC1) (R. norvegicus) (UniProt P28023); experiment: AUC; sedimentation equilibrium, stoichiometric CC1 + IC 1-124, 4°C, 100 mM NaCl; model CC1 dimer + 2 IC, constant in M^2
[10] = molecular target: dynactin p150^Glued coiled-coil 1 (CC1) (R. norvegicus) (UniProt P28023); experiment: AUC; sedimentation equilibrium, stoichiometric CC1 + IC 1-124, 4°C, 250 mM NaCl; model CC1 dimer + 2 IC, constant in M^2
[11] = molecular target: dynactin p150^Glued coiled-coil 1 (CC1) (R. norvegicus) (UniProt P28023); experiment: AUC; sedimentation equilibrium, stoichiometric CC1 + IC 1-124, 4°C, 500 mM NaCl; model CC1 dimer + 2 IC, constant in M^2
[12] = molecular target: dynactin p150^Glued coiled-coil 1 (CC1) (R. norvegicus) (UniProt P28023); experiment: AUC; sedimentation equilibrium, stoichiometric CC1 + IC 1-124, 4°C, 1000 mM NaCl; model CC1 dimer + 2 IC, constant in M^2
[13] = molecular target: dynactin p150^Glued coiled-coil 1 (CC1) (R. norvegicus) (UniProt P28023); experiment: AUC; sedimentation equilibrium of admixtures of p150Glued fragment and IC 1-124, 4°C, 1x PBS, 1 mM TCEP; model p150 dimer + 2 IC -> dimer-IC2, constant in M^2; CC1A: 10 μM + 10 μM
[14] = molecular target: dynactin p150^Glued coiled-coil 1A (CC1A), residues 204–348 (R. norvegicus) (UniProt P28023); experiment: as above
[15] = molecular target: dynactin p150^Glued coiled-coil 1B (CC1B), residues 381–530 (R. norvegicus) (UniProt P28023); experiment: as above

Sequence of Cytoplasmic dynein 1 intermediate chain 2, isoform 2C, N-terminal fragment IC1-124 (Q62871 whole entry, the tested form may be a part, canonical isoform): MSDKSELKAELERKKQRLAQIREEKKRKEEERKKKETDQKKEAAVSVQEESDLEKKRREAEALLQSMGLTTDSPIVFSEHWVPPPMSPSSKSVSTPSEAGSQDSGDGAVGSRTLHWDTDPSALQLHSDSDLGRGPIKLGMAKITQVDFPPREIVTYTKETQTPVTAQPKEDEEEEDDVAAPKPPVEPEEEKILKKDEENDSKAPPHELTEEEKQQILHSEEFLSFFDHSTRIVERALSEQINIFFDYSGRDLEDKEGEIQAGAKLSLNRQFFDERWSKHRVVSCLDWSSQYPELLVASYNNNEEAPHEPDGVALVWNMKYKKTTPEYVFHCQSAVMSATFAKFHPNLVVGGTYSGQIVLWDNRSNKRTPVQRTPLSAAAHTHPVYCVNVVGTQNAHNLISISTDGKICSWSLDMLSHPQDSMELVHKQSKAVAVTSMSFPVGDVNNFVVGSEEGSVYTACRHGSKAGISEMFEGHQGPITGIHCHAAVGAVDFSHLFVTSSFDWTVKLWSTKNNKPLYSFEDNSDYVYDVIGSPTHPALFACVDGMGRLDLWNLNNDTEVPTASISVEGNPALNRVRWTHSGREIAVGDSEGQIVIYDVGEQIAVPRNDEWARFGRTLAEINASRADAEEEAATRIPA
Sequence of p150Glued CC1 (Drosophila melanogaster) (P13496 221-509): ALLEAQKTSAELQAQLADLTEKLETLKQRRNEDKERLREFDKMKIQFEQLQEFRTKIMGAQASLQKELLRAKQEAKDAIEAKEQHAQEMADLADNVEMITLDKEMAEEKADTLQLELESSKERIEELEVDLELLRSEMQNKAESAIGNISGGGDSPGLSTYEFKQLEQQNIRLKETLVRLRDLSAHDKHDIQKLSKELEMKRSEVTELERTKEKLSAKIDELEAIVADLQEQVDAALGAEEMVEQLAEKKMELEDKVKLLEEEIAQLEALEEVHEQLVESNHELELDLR
Sequence of dynein intermediate chain (Q24246 whole entry): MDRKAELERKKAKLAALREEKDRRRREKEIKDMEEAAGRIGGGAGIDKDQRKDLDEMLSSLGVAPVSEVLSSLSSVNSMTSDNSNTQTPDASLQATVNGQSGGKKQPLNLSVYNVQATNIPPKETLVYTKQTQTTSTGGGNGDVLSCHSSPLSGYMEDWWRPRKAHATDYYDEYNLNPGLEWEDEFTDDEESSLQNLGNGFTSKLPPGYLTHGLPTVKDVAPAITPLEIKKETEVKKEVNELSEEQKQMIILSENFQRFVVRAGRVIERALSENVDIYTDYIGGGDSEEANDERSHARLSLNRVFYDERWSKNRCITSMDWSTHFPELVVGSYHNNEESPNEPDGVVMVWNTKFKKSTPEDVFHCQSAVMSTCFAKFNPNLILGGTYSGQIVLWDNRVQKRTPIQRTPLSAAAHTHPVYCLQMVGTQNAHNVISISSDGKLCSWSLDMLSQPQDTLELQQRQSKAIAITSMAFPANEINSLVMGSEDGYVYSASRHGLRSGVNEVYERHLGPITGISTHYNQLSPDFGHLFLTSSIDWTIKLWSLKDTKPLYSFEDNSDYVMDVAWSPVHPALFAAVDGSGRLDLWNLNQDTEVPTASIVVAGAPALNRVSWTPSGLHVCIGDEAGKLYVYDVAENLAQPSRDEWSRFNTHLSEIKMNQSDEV

With “Dynactin subunit 1 (p150Glued) CC1 fragment” the dissociation constant ([1]; pH 7.0, not stated (pH series 6.0, 7.0, 8.0, 9.0; buffer substances not named)) was ≤10^−13 M^2, the dissociation constant ([1]; pH 7.4, 1x PBS: 137 mM NaCl, 2.7 mM KCl, 1x PBS (4.3 mM Na2HPO4, 1.47 mM KH2PO4, pH 7.4)) was <10^−15 M^2 and the dissociation constant ([1]; pH 8.0, not stated (pH series 6.0, 7.0, 8.0, 9.0; buffer substances not named)) was ≤10^−14 M^2. The dissociation constant ([1]; pH 9.0, not stated (pH series 6.0, 7.0, 8.0, 9.0; buffer substances not named)) was ≤10^−12 M^2.
Substance “IC2B^1–158-TcTex1-LC8 complex (from UniProt Q9Z336 1-113; P63170 1-89)” has a change in elution volume of the IC complex [2] of 2.22 mL and a change in elution volume of the IC complex [3] of 1.26 mL.
Substance “dynactin p150^Glued coiled-coil 1 (CC1) (from UniProt P28023 204-530) (domain or fragment)” has a Kd [4] of less than 0.001 µM and a stoichiometry N [4] of 2.
For “dynein intermediate chain (from UniProt Q24246)”, the Kd [5] is listed as 3.5 µM.
Substance “dynein intermediate chain isoform 2C, residues 1–124 (domain or fragment)” has an overall dissociation constant, p150 dimer + 2 IC [6] of less than 1e-13 M^2, an overall dissociation constant, p150 dimer + 2 IC [7] of less than 1e-14 M^2 and an overall dissociation constant, p150 dimer + 2 IC [8] of less than 1e-12 M^2. For the same substance, the overall dissociation constant, p150 dimer + 2 IC [9] was greater than 1e-15 M^2, the overall dissociation constant, p150 dimer + 2 IC [10] was 1e-12 M^2 and the overall dissociation constant, p150 dimer + 2 IC [11] was 1e-10 M^2. For the same substance, the overall dissociation constant, p150 dimer + 2 IC [12] was 1e-08 M^2, the overall dissociation constant, p150 dimer + 2 IC [13] was less than 1e-15 M^2 and the stoichiometry N (IC per CC1 dimer) [13] was 2. It also gave an overall dissociation constant, p150 dimer + 2 IC [14] greater than 1e-10 M^2, an overall dissociation constant on the scale of Figure S4B (scale not told, presumably -log10) [15] of 12 and a stoichiometry N (IC per CC1B dimer) [15] of 2.
